{"source": "patent US20240166745A1", "about": "(Eli Lilly, published 2024)", "binders": {"B1": {"name": "Antibody E (antibody, V domains shown)", "VH": "not shown", "VL": "DIVMTQTPLSLPVTPGEPASISCRSSQSLLDSAEGSTYLDWFLRKPGDSPQLLIYTLSYRASGVPDRFSGSGSGTDFTLKISRVEAEDVGVYYCMQRVEFPYTFGQGTKVEIKR", "notes": "Monospecific LAG-3 antibody; also called human LAG-3 Antibody E"}}, "key": {"Human LAG-3 ECD-His": {"biological_target": "T1, Human LAG-3 ECD-His (human, UniProt P18627 23-449)", "T1 construct": "Soluble analyte in SPR; the entry includes linker and His tag; also called human LAG-3-His", "T1 sequence": "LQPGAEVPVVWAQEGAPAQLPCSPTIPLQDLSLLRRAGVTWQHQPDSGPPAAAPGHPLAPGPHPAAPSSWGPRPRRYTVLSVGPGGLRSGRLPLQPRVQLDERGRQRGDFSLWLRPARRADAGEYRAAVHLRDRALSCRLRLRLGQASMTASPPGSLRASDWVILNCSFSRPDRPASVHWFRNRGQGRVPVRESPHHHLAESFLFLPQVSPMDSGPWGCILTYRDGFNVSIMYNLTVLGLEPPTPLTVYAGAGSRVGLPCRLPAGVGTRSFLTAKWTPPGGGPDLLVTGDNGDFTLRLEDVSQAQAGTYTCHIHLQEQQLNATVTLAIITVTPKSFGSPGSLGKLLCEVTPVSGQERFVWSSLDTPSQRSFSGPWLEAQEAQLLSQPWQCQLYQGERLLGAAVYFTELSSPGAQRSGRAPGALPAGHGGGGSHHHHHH", "assay": "SPR (Biacore T200), antibody captured on PrismA chip, ECD as analyte, 37° C.", "experimental": "(§1) A Biacore® T200 (Cytiva, Marlborough, MA) was used to measure the binding kinetics and affinities of the LAG-3 antibody to the LAG-3 soluble extracellular domain (ECD) and the bispecific antibody to soluble LAG-3-ECD and PD-1-ECD (human: Sino Biologicals, Cat #10377-H08H; cynomolgus: Sino Biologicals, Cat #90311-C08H) by surface plasmon resonance. Samples were diluted in HBS-EP+ (10 mM Hepes, 150 mM NaCl, 3 mM EDTA, 0.05% Tween-20, pH 7.6) (Teknova Cat #H8022) with 5 g/L of BSA (Jackson ImmunoResearch Cat #001-000-161) running buffer. PrismA Series S Sensor chip (Cat #29650263) is purchased from Cytiva.\n(§2) Binding was evaluated using multi-cycle kinetics by an antibody capture method. Each cycle was performed at either 37° C. or 25° C. at a flow rate of 10 μL/min for antibody capture to the PrismA chip and 100 μL/min for analyte association (with 120 sec contact time) and dissociation (900 sec). Each cycle consisted of the following steps: injection of bispecific antibody at 1 μg/mL in HBS-EP+ targeting Rmax values of 125 RU (LAG-3 arm), 294 RU (PD-1 arm) and 63 RU (LAG-3 antibody) on flow cell, injection of analyte in HBS-EP+(concentration range of 62.5 nM to 0.25 nM by two-fold serial dilution for both human PD-1-ECD-His (SEQ ID NO: 40) and human LAG-3-His (SEQ ID NO: 42) followed by 900-second dissociation phase, and regeneration using 10 μL of 10 mM glycine hydrochloride, pH 1.5 over a 60-second contact time utilizing a 10 μL/min flow rate. All analyte concentrations were determined utilizing monomeric molecular weight (MW) values. Association rates (kₒₙ) and dissociation rates (koff) for LAG-3-ECD and PD-1-ECD were evaluated using double referencing by flow-cell one reference subtraction in addition to 0 nM blank subtraction and fit to “1:1 (Langmuir) binding” model in the BIAevaluation software version 4.1. The dissociation constant (KD) was calculated from the binding kinetics according to the relationship KD=Koff/Kₒₙ. Stoichiometry=[RUₘₐₓ/RUcaptured]/[MWanalyte/MWantibody] where MWAntibodyA is 150 kDa. Values are reported as mean±standard deviation."}, "Cynomolgus LAG-3-ECD": {"biological_target": "T2, Cynomolgus LAG-3-ECD (cynomolgus)", "T2 construct": "as printed it starts with the N-terminal leader (MWEAQ...) and ends with a His tag; also called Cynomolgus LAG-3 ECD-His", "T2 chain": "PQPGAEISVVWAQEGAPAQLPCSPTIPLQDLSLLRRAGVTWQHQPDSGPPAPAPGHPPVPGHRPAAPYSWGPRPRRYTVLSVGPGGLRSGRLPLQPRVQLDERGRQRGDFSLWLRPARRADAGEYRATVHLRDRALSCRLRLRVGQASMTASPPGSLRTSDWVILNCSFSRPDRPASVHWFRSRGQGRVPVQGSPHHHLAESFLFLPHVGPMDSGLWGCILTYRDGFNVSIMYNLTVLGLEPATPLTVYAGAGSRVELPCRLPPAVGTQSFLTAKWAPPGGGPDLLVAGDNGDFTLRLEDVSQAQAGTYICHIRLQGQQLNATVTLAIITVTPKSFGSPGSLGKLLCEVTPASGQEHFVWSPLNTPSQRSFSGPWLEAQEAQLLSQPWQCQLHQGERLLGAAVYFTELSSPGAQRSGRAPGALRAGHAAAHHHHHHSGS", "assay": "SPR (Biacore T200), antibody captured on PrismA chip, ECD as analyte, 37° C.", "experimental": "as §1, §2"}, "[1]": {"biological_target": "T3, cell membrane-expressed human LAG-3 (human, UniProt P18627 23-525)", "T3 construct": "also called hLAG-3; CD223", "T3 sequence": "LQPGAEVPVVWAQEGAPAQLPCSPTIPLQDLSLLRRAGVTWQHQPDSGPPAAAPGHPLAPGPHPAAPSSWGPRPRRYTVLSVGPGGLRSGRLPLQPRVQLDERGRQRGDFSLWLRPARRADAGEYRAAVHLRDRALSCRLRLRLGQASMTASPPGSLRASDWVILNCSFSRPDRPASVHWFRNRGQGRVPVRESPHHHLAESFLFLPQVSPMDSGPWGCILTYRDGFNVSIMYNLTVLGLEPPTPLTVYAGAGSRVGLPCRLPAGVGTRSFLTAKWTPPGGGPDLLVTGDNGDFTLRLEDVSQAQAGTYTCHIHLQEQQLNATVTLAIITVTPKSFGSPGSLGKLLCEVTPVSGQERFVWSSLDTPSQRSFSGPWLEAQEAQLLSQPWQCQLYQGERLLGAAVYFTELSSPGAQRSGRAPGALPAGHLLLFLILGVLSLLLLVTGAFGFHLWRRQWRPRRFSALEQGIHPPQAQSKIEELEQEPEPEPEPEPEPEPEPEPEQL", "assay": "flow cytometry, labeled antibody on anti-CD3 activated human PBMC, CD4 T cells, percent of cells bound (mean +/- SEM, n=3)", "experimental": "(§3) Cells were incubated with 10-12 point, 3-fold serial dilutions of the respective labeled antibody (Invitrogen #S20026, Invitrogen #C20029), starting at 30 ug/mL, in PBS+2% FCS for 30 minutes at 4° C. and containing the following: CD4 eBioscience #12-0047-42 or Biolegend #344634; CD8 eBioscience #25-0088-42; CD3 eBioscience 56-0038-82 for human cells and BD #557917 for cyno cells; CD33 eBioscience 45-0338-42 for human cells; Live/Dead eBioscience #65-0865-18. After washing thoroughly, cells were processed on a BD Fortessa or Fortessa X20 cytometer, and data were analyzed with Flowjo software (BD Biosciences). Percent of cells bound by the respective antibody is quantified and graphed with Prism (Graphpad, San Diego, CA)."}, "[2]": {"biological_target": "T3, cell membrane-expressed human LAG-3", "assay": "flow cytometry, labeled antibody on anti-CD3 activated human PBMC, CD8 T cells, percent of cells bound (mean +/- SEM, n=3)", "experimental": "as §3"}, "[3]": {"biological_target": "T4, cell surface cynomolgus monkey LAG-3 (cynomolgus)", "T4 construct": "whole, on cells", "assay": "flow cytometry, labeled antibody on anti-CD3 activated cynomolgus PBMC, CD4 T cells, percent of cells bound (mean +/- SEM, n=3)", "experimental": "as §3"}, "[4]": {"biological_target": "T4, cell surface cynomolgus monkey LAG-3", "assay": "flow cytometry, labeled antibody on anti-CD3 activated cynomolgus PBMC, CD8 T cells, percent of cells bound (mean +/- SEM, n=3)", "experimental": "as §3"}}}
{"binder": "B1", "values": [{"measurement": "Kd", "setting": "Human LAG-3 ECD-His", "value": 1, "unit": "nM"}, {"measurement": "koff", "setting": "Human LAG-3 ECD-His", "value": 0.16, "unit": "s⁻¹"}, {"measurement": "kon", "setting": "Human LAG-3 ECD-His", "value": "1.5e+08", "unit": "M⁻¹ s⁻¹"}, {"measurement": "Kd", "setting": "Cynomolgus LAG-3-ECD", "value": 0.038, "unit": "nM"}, {"measurement": "koff", "setting": "Cynomolgus LAG-3-ECD", "value": 0.0042, "unit": "s⁻¹"}, {"measurement": "kon", "setting": "Cynomolgus LAG-3-ECD", "value": "1.1e+08", "unit": "M⁻¹ s⁻¹"}, {"measurement": "EC50", "setting": "[1]", "value": 8.7, "unit": "ng/mL"}, {"measurement": "EC50", "setting": "[2]", "value": 3.4, "unit": "ng/mL"}, {"measurement": "EC50", "setting": "[3]", "value": 10.5, "unit": "ng/mL"}, {"measurement": "EC50", "setting": "[4]", "value": 6.5, "unit": "ng/mL"}]}
